# Test results as given in article PMC10698284.
# B1: SLC3A2 (4F2hc, CD98): N381D (protein)
# parent chain: MELQPPEASIAVVSIPRQLPGSHSEAGVQGLSAGDDSELGSHCVAQTGLELLASGDPLPSASQNAEMIETGSDCVTQAGLQLLASSDPPALASKNAEVTGTMSQDTEVDMKEVELNELEPEKQPMNAASGAAMSLAGAEKNGLVKIKVAEDEAEAAAAAKFTGLSKEELLKVAGSPGWVRTRWALLLLFWLGWLGMLAGAVVIIVRAPRCRELPAQKWWHTGALYRIGDLQAFQGHGAGNLAGLKGRLDYLSSLKVKGLVLGPIHKNQKDDVAQTDLLQIDPNFGSKEDFDSLLQSAKKKSIRVILDLTPNYRGENSWFSTQVDTVATKVKDALEFWLQAGVDGFQVRDIENLKDASSFLAEWQNITKGFSEDRLLIAGTNSSDLQQILSLLESNKDLLLTSSYLSDSGSTGEHTKSLVTQYLNATGNRWCSWSLSQARLLTSFLPAQLLRLYQLMLFTLPGTPVFSYGDEIGLDAAALPGQPMEAPVMLWDESSFPDIPGAVSANMTVKGQSEDPGSLLSLFRRLSDQRSKERSLLHGDFHAFSAGPGLFSYIRHWDQNERFLVVLNFGDVGLSAGLQASDLPASASLPAKADLLLSTQPGREEGSPLELERLKLEPHEGLLLRFPYAA
# B2: SLC3A2 (4F2hc, CD98): N365D (protein)
# parent chain: B1 parent chain
# B3: SLC3A2 (4F2hc, CD98): A273N (protein)
# parent chain: B1 parent chain
# B4: SLC3A2 (4F2hc, CD98): A273N + D355N (protein)
# parent chain: B1 parent chain
# B5: SLC3A2 (4F2hc, CD98): D355N + D492N (protein)
# parent chain: B1 parent chain
# How the values were obtained:
# [1] = anti-SLC3A2 antibody uptake, 10 min 37 °C; details: glycan lost; control: WTseq
# [2] = response of SLC3A2 endocytosis to 5 min inhibitor; details: glycan lost; control: WTseq (inhibitor reduced internalization by ∼50%)
# [3] = endosomal distribution of internalised SLC3A2, confocal; details: glycan lost; control: WTseq (small peripheral endosomes)
# [4] = Gal3-488 internalisation, 10 min 37 °C; details: glycan lost; control: WTseq
# [5] = dox-induced expression and FLAG pull-down efficiency; details: control: WTseq
# [6] = surface anti-SLC3A2 antibody binding at 4 °C, imaging; details: glycan lost; control: WTseq
Protein,localisation_or_trafficking [1],localisation_or_trafficking [2],localisation_or_trafficking [3],other: Gal3 uptake by expressing cells [4],expression_or_secretion ([5]; glycan lost),localisation_or_trafficking [6],expression_or_secretion ([5]; glycan gained)
B1,increases,abolishes,changes,decreases,no change,no change,
B2,increases,changes,changes,increases,no change,no change,
B3,,,,,,,no change
B4,,,,,,,no change
B5,,,,,,,no change
